Each block holds one binder with its values, some of them ahead of it.
What was measured:
P2-AA = biological target: T1, P2-AA; assay: two-hybrid library CCmax; conditions: mean of both orientations;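 further: natural log of median RNA to DNA barcode read ratio; higher means stronger binding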
T1 chain: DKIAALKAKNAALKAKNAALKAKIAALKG

P2-AA-1HAA-D = biological target: T2, P2-AA-1HAA-D; assay: two-hybrid library CCmax; conditions: mean of both orientations;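 further: natural log of median RNA to DNA barcode read ratio; higher means stronger binding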
T2 chain: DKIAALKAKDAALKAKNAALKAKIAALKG

P2-AA-1HAA-T = biological target: T3, P2-AA-1HAA-T; assay: two-hybrid library CCmax; conditions: mean of both orientations;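 further: natural log of median RNA to DNA barcode read ratio; higher means stronger binding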
T3 chain: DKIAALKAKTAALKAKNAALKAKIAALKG

P2-AA-1HAA-V = biological target: T4, P2-AA-1HAA-V; assay: two-hybrid library CCmax; conditions: mean of both orientations;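 further: natural log of median RNA to DNA barcode read ratio; higher means stronger binding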
T4 chain: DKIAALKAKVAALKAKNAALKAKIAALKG

P2-AA-1HAA-R = biological target: T5, P2-AA-1HAA-R; assay: two-hybrid library CCmax; conditions: mean of both orientations
T5 chain: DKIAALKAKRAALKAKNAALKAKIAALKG

P2-AA-1HAA-I = biological target: T6, P2-AA-1HAA-I; assay: two-hybrid library CCmax; conditions: mean of both orientations
T6 chain: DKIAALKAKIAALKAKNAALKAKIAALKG

P2-AA-1HAA-E = biological target: T7, P2-AA-1HAA-E; assay: two-hybrid library CCmax; conditions: mean of both orientations
T7 chain: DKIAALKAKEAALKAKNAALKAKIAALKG

4H626-bN = biological target: T8, 4H626-bN; assay: two-hybrid library CCNG1
T8 chain: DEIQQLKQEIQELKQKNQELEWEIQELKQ

4H591-bN = biological target: T9, 4H591-bN; assay: two-hybrid library CCNG1
T9 chain: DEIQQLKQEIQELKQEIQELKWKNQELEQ

4H906-bN = biological target: T10, 4H906-bN; assay: two-hybrid library CCNG1
T10 chain: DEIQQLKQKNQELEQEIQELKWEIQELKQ

4H3628-bN = biological target: T11, 4H3628-bN; assay: two-hybrid library CCNG1
T11 chain: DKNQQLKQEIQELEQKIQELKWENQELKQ

4H3497-bN = biological target: T12, 4H3497-bN; assay: two-hybrid library CCNG1
T12 chain: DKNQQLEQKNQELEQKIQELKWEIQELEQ

4H3926-bN = biological target: T13, 4H3926-bN; assay: two-hybrid library CCNG1
T13 chain: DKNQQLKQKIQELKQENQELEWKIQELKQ

4H3462-bN = biological target: T14, 4H3462-bN; assay: two-hybrid library CCNG1
T14 chain: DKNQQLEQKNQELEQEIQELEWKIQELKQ

4H3298-bN = biological target: T15, 4H3298-bN; assay: two-hybrid library CCNG1
T15 chain: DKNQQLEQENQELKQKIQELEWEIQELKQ

4H3613-bN = biological target: T16, 4H3613-bN; assay: two-hybrid library CCNG1
T16 chain: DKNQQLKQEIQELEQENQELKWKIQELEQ

4H754-bA = biological target: T17, 4H754-bA; assay: two-hybrid library CCNG1
T17 chain: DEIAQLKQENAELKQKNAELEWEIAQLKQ

4H953-bA = biological target: T18, 4H953-bA; assay: two-hybrid library CCNG1
T18 chain: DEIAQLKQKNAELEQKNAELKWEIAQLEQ

4H575-bA = biological target: T19, 4H575-bA; assay: two-hybrid library CCNG1
T19 chain: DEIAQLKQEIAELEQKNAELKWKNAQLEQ

P7A-bA = biological target: T20, P7A-bA; assay: two-hybrid library CCNG1
T20 chain: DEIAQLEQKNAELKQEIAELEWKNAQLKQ

4H797-bA = biological target: T21, 4H797-bA; assay: two-hybrid library CCNG1
T21 chain: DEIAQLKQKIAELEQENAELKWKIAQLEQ

4H918-bA = biological target: T22, 4H918-bA; assay: two-hybrid library CCNG1
T22 chain: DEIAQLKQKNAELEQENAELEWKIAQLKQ

4H683-bA = biological target: T23, 4H683-bA; assay: two-hybrid library CCNG1
T23 chain: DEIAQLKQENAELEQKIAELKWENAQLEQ

4H968-bA = biological target: T24, 4H968-bA; assay: two-hybrid library CCNG1
T24 chain: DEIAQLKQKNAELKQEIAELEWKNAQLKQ

4H855-bA = biological target: T25, 4H855-bA; assay: two-hybrid library CCNG1
T25 chain: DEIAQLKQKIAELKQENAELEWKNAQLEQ

4H780-bA = biological target: T26, 4H780-bA; assay: two-hybrid library CCNG1
T26 chain: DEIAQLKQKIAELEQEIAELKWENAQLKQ

P9SHb = biological target: T27, P9SHb; assay: two-hybrid library CCNG1
T27 chain: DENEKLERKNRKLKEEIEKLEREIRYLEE

P8SHb = biological target: T28, P8SHb; assay: two-hybrid library CCNG1
T28 chain: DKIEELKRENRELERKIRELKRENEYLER

P7SHb = biological target: T29, P7SHb; assay: two-hybrid library CCNG1
T29 chain: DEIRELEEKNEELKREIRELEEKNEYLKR

Binder: DEIAALEAEYAALEAENAALEAEIAALEG [P1-AA-1HAA-Y]
interaction score (P2-AA): 2.07 | interaction score (P2-AA-1HAA-D): 0.371 | interaction score (P2-AA-1HAA-T): 1.95 | interaction score (P2-AA-1HAA-V): 1.99 | interaction score (P2-AA-1HAA-R): 1.52 | interaction score (P2-AA-1HAA-I): 2.07 | interaction score (P2-AA-1HAA-E): 0.866

Binder: DEIAQLKQEIAELEQKNAELKWKNAQLEQ [4H575-bA]
interaction score (4H754-bA): -0.786 | interaction score (4H953-bA): -0.885 | interaction score (4H575-bA): -0.354 | interaction score (P7A-bA): -1.17 | interaction score (4H797-bA): -0.567 | interaction score (4H918-bA): 0.24 | interaction score (4H683-bA): -0.37 | interaction score (4H968-bA): -0.872 | interaction score (4H855-bA): 1.12 | interaction score (4H780-bA): -1.33

The remaining lines, values ahead:

interaction score (4H626-bN): -1.27 | interaction score (4H591-bN): -0.882 | interaction score (4H906-bN): -0.217 | interaction score (4H3628-bN): -0.916 | interaction score (4H3497-bN): -1.06 | interaction score (4H3926-bN): -1.32 | interaction score (4H3462-bN): -0.0887 | interaction score (4H3298-bN): -2.82 | interaction score (4H3613-bN): -1.42
Binder: DKNQQLEQENQELKQKIQELEWEIQELKQ [4H3298-bN]

interaction score (P9SHb): 0.021 | interaction score (P8SHb): 1.18 | interaction score (P7SHb): -0.618
Binder: DEIRELEEKNEELKREIRELEEKNEYLKR [P7SHb]

— publication PMC10397247
